Data published in article PMC11584650, “An inhibitory segment within G-patch activators tunes Prp43-ATPase activity during ribosome assembly” (Nature Communications, 2024).

Substrate: Nc1ncnc2c1ncn2[C@@H]1O[C@H](COP(=O)(O)OP(=O)(O)OP(=O)(O)O)[C@@H](O)[C@H]1O
Assay: pyruvate kinase/lactate dehydrogenase coupled NADH assay, Michaelis-Menten fit
Assay type: biochemical, Saccharomyces cerevisiae
Details: no RNA, 20 mM MgCl2, 50 mM Hepes pH 7.5, 200 mM KCl, room temperature, ATP up to 2.5 mM
Source text: pyruvate kinase/lactate dehydrogenase coupled NADH assay, Michaelis-Menten fit on Prp43 | We obtained kinetic parameters for the ATPase activities of Prp43, Prp43:Tma23^M and Ppr43:Pxr1^M complexes

B1: Prp43 (Saccharomyces cerevisiae S288C) (protein)
chain: MGSKRRFSSEHPDPVETSIPEQAAEIAEELSKQHPLPSEEPLVHHDAGEFKGLQRHHTSAEEAQKLEDGKINPFTGREFTPKYVDILKIRRELPVHAQRDEFLKLYQNNQIMVFVGETGSGKTTQIPQFVLFDEMPHLENTQVACTQPRRVAAMSVAQRVAEEMDVKLGEEVGYSIRFENKTSNKTILKYMTDGMLLREAMEDHDLSRYSCIILDEAHERTLATDILMGLLKQVVKRRPDLKIIIMSATLDAEKFQRYFNDAPLLAVPGRTYPVELYYTPEFQRDYLDSAIRTVLQIHATEEAGDILLFLTGEDEIEDAVRKISLEGDQLVREEGCGPLSVYPLYGSLPPHQQQRIFEPAPESHNGRPGRKVVISTNIAETSLTIDGIVYVVDPGFSKQKVYNPRIRVESLLVSPISKASAQQRAGRAGRTRPGKCFRLYTEEAFQKELIEQSYPEILRSNLSSTVLELKKLGIDDLVHFDFMDPPAPETMMRALEELNYLACLDDEGNLTPLGRLASQFPLDPMLAVMLIGSFEFQCSQEILTIVAMLSVPNVFIRPTKDKKRADDAKNIFAHPDGDHITLLNVYHAFKSDEAYEYGIHKWCRDHYLNYRSLSAADNIRSQLERLMNRYNLELNTTDYESPKYFDNIRKALASGFFMQVAKKRSGAKGYITVKDNQDVLIHPSTVLGHDAEWVIYNEFVLTSKNYIRTVTSVRPEWLIEIAPAYYDLSNFQKGDVKLSLERIKEKVDRLNELKQGKNKKKSKHSKK
notes: full-length His6-tagged Prp43, expressed in E. coli BL21(DE3)*, Ni-NTA and size exclusion
**Q.** Which results are given for B1?
**A.** Km: 19.04 ± 7.11 µM; kcat: 1.91 ± 0.03 min⁻¹
